We go through 10 molecules from US20110123544A1 (published 2011).

Test [1] addresses recombinant human IL-12 (rhIL-12) (human) (UniProt P29459). As to the kind of experiment: cell-based or functional assay.
Test [2] addresses recombinant rhesus IL-12 (rhesus monkey) (UniProt P48091). As to the kind of experiment: cell-based or functional assay.
In test [3] the target is T1, Cyno IL-12 (PBMC sup) (cynomolgus monkey).
T1 chain 1: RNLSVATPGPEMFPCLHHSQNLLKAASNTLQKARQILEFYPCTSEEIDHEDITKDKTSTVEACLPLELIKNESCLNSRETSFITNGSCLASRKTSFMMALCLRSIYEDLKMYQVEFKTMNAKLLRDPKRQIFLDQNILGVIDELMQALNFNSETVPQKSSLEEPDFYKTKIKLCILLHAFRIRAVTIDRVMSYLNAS
T1 chain 2: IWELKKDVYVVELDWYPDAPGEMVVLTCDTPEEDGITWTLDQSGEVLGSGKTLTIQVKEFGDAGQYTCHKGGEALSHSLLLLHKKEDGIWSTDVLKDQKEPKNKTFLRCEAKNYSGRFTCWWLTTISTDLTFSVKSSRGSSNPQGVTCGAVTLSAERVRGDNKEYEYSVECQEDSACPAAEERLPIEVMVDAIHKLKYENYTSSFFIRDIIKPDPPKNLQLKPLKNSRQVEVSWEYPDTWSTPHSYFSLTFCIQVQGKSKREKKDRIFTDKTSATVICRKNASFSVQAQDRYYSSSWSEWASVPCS
As to the kind of experiment: cell-based or functional assay.

The target of test [4] is T2, Baboon IL-12 (PBMC sup) (baboon).
T2 chain 1: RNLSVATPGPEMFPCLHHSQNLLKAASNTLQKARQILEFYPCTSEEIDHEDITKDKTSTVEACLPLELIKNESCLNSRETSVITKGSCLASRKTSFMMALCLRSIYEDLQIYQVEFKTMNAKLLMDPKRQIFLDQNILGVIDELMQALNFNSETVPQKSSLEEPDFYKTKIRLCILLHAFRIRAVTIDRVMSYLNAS
T2 chain 2: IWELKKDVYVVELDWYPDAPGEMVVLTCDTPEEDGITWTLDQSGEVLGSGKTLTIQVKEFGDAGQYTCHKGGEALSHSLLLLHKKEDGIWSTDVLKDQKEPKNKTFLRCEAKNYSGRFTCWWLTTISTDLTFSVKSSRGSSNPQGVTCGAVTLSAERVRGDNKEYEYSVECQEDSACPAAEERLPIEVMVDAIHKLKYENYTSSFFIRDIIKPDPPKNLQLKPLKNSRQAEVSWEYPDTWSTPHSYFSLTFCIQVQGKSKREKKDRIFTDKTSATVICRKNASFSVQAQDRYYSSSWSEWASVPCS
The experiment in a line: cell-based or functional assay.

The target of test [5] is recombinant murine IL-12 (mouse) (UniProt P43431). As to the kind of experiment: cell-based or functional assay.
For test [6] the target is unchanged. As to the kind of experiment: Receptor Binding Assay: inhibition of 125I-murine IL-12 binding to receptors on 2D6 cells.
Test [7] has the same target. As to the kind of experiment: Biomolecular Interaction Assay; C17.15 captured on goat anti-rat IgG, soluble recombinant murine IL-12.
The target in test [8] is T3, human IL-12 (recombinant human IL-12, p70 heterodimer of p35 and p40) (human, UniProt P29459 23-219; P29460 23-328).
T3 sequence (looked up) 1: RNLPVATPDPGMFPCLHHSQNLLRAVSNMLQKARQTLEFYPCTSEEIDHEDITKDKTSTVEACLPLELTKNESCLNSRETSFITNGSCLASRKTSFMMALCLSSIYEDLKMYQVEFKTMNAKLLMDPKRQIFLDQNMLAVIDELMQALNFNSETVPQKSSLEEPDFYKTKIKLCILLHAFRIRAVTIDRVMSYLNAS
T3 sequence (looked up) 2: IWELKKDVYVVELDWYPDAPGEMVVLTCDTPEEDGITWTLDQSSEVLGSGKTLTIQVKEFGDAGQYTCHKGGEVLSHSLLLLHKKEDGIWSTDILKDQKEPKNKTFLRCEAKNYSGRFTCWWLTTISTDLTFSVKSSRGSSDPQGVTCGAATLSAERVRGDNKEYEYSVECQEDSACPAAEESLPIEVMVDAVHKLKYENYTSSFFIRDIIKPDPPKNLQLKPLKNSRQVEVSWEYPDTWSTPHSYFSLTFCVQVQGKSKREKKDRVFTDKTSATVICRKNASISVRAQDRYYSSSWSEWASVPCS
The experiment in a line: cell-based or functional assay.

For test [9], the target named is T4, recombinant human interleukin 12 (p40/p35 heterodimer) (human, UniProt P29460 23-328; P29459 23-219).
T4 chain 1: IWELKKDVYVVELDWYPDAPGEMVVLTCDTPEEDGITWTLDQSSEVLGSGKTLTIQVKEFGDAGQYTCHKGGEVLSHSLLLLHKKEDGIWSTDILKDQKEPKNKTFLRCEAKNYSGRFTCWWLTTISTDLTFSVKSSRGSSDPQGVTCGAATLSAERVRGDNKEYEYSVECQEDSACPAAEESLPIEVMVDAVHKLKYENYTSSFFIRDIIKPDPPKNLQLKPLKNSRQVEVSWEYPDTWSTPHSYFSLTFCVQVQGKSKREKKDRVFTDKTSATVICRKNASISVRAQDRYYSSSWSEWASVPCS
T4 chain 2: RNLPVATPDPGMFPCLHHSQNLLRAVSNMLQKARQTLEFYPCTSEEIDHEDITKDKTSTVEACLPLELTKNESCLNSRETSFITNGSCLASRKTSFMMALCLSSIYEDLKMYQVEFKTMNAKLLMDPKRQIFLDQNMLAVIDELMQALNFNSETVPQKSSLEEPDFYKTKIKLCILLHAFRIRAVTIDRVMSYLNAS
As to the kind of experiment: BIAcore; unmutated.

In test [10] the target is T5, recombinant human interleukin 12 (p40/p35 heterodimer) (human, UniProt P29460 23-328; P29459 23-219).
T5 construct: Disulfide-linked heterodimer; also called human IL-12; hIL-12
T5 sequence (looked up) 1: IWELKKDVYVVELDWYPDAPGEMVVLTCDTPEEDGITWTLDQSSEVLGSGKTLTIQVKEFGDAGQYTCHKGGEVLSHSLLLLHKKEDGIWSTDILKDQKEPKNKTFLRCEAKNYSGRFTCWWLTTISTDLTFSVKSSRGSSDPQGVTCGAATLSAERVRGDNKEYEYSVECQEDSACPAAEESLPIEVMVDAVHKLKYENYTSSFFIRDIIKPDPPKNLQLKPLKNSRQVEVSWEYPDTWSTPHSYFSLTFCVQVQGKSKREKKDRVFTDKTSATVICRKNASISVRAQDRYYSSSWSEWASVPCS
T5 sequence (looked up) 2: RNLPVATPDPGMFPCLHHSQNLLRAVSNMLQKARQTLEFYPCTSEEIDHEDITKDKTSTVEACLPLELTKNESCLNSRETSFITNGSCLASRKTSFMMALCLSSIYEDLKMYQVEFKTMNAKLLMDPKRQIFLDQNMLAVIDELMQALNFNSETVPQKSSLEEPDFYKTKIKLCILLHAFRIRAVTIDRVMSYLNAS
The experiment in a line: IL-12 receptor binding assay (RBA): inhibition of labelled IL-12 binding to PHA blasts.

Test [11] deals with human IL-12 (recombinant human IL-12, p70 heterodimer of p35 and p40) (human) (UniProt P29459). As to the kind of experiment: cell-based or functional assay.
Test [12] shares this target. As to the kind of experiment: BIAcore SPR, IL-12 chip. In general terms: In SPR one partner is held on a chip, and binding of the other changes the refractive index at the surface.
Test [13] concerns the target T6, recombinant human IL-12 (rhIL-12) (human, UniProt P29459 23-219; P29460 23-328).
T6 sequence (looked up) 1: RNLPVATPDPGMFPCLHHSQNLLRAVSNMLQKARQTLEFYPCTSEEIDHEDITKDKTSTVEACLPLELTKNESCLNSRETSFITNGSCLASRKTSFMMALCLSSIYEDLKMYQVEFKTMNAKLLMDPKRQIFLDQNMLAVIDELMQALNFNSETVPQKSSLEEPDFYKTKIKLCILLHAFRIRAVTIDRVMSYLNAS
T6 sequence (looked up) 2: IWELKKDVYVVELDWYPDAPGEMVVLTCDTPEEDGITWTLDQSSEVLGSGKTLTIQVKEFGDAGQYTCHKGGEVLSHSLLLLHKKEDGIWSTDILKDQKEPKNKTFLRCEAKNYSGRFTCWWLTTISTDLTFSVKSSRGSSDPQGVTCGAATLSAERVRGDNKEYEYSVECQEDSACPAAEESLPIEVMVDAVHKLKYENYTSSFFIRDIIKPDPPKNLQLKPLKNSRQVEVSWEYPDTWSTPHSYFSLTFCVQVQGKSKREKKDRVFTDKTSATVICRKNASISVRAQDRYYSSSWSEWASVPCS
As to the kind of experiment: cell-based or functional assay.

The target in test [14] is human IL-12 (recombinant human IL-12, p70 heterodimer of p35 and p40) (human) (UniProt P29459). As to the kind of experiment: RB assay: 125I-hIL-12 binding to PHA blasts.
Test [15] deals with T5, recombinant human interleukin 12 …. As to the kind of experiment: surface plasmon resonance (BIAcore).

The IC50 is the midpoint of a concentration-inhibition curve. Broadly, the Kd is a measure of binding affinity in units of concentration. For orientation: koff means the first-order rate constant of dissociation. Broadly, the kon is a measure of how fast the partners come together.

recombinant murine IL-12 (mouse), sequence (P43431 23-215, chain 1 of 2): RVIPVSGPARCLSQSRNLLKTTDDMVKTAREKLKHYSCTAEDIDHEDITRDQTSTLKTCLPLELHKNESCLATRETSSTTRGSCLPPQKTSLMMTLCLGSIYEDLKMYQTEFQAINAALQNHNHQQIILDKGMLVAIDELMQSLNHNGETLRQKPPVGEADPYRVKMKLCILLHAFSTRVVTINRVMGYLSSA
recombinant murine IL-12 (mouse), sequence (P43432 23-335, chain 2 of 2, further chain): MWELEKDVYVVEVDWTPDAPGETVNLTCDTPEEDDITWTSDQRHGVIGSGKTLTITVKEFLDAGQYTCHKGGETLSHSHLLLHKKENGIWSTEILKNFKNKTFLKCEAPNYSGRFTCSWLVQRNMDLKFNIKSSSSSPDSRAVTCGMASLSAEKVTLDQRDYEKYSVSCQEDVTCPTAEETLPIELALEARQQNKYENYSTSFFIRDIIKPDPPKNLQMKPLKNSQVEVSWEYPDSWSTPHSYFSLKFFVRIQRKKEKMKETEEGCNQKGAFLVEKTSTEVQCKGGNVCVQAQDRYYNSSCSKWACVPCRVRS

In the case of “C8.6.2, mouse anti-human IL-12 monoclonal antibody”, in [1], the IC50 (M), Human IL-12 Purified turned out to be 5e-11 M. Moreover, in [2], the IC50 (M), Rhesus IL-12 Purified is 1e-10 M. In test [3], this molecule had an IC50 (M), Cyno IL-12 PBMC sup of 1.2e-10 M. The same molecule had an IC50 (M), Baboon IL-12 PBMC sup in test [4] of 2e-10 M.
In the case of “C17.15, rat anti-murine IL-12 monoclonal antibody”, in [5], the IC50 (M), Mouse IL-12 Purified came out at 3e-11 M and the PHA blast Assay IC50 is 14 pM. Further, the IC50 in test [6] was 0.15 nM. Further, in [7], the Kd was 0.48 nM, the koff was found to be 0.000184 s⁻¹ and the kon is 380000 M⁻¹ s⁻¹.

B1: 70-1 IgG1 (antibody, V domains shown)
VH: HGSHDN
VL: QSYDSSLRGSRV
Take B1: the “PHA assay IC50” value in test [8] was determined as 200 nM.
As for FIRYDGSNKYYADSVKG [Y61 H56 N], the koff in test [9] came to 0.000385 s⁻¹.

B2: Y61 IgG (antibody, V domains shown)
VH: QVQLVQSGGGVVQPGRSLRLSCAASGFTFSSYGMHWVRQAPGKGLEWVAFIRYDGSNKYYADSVKGRFTISRDNSKNTLYLQMKSLRAEDTAVYYCKTHGSHDNWGQGTMVTVSS
VL: SYVLTQPPSVSGTPGQRVTISCSGGRSWIGSNTVKWYQQLPGTAPKLLIYGNDQRPSGVPDRFSGSKSGTSASLAITGVQAEDEADYYCQSYDRGTHPALLFGTGTKVTVLG
As to B2, the IC50 (M), Rhesus IL-12 Purified in test [2] was determined as 1e-10 M. The “IC50 (M), Cyno IL-12 PBMC sup” value in [3] was 2.2e-10 M.

B3: Joe 9 wild type (scFv, V domains shown)
VH: QVQLVQSGGGVVQPGRSLRLSCAASGFTFSSYGMHWVRQAPGKGLEWVAFIRYDGSNKYYADSVKGRFTISRDNSKNTLYLQMKSLRAEDTAVYYCTTSGSYDYWGQGTMVTVSS
VL: SYVLTQPPSVSGTPGQRVTISCSGGRSNIGSNTVKWYQQLPGTAPKLLIYGNDQRPSGVPDRFSGSKSGTSASLAITGVQAEDEADYYCQSYDSSLRGSRVFGTGTKVTVL
B3: the IC50 in [10] amounted to 1000 nM.

B4: 149-7 (scFv, V domains shown)
VH: QVQLVQSGGGVVQPGRSLRLSCAASGFTFSSYGMHWVRQAPGKGLEWVAFIRYDGSNKYYADSVKGRFTISRDNSKNTLYLQMKSLRAEDTAVYYCTTHGSHDNWGQGTMVTVSS
VL: SYVLTQPPSVSGTPGQRVTISCSGGRSNIGSNTVKWYQQLPGTAPKLLIYGNDQRPSGVPDRFSGSKSGTSASLAITGVQAEDEADYYCQSYDRDFTGSRVFGTGTKVTVL
As for B4, the PHA assay IC50 in test [11] is 3 nM. Moreover, in [12], the koff came out at 0.00113 s⁻¹. In [13], the “PHA assay IC50 (M) p70:p40 1:0” value came out at 3.5e-09 M, the “PHA assay IC50 (M) p70:p40 1:20” value turned out to be 2.5e-09 M and the “PHA assay IC50 (M) p70:p40 1:50” value stood at 4e-09 M. Further, in test [14], the IC50 was determined as 0.9 nM.

B5: Y61 scFv (scFv, V domains shown)
VH: QVQLVQSGGGVVQPGRSLRLSCAASGFTFSSYGMHWVRQAPGKGLEWVAFIRYDGSNKYYADSVKGRFTISRDNSKNTLYLQMKSLRAEDTAVYYCKTHGSHDNWGQGTMVTVSS
VL: SYVLTQPPSVSGTPGQRVTISCSGGRSWIGSNTVKWYQQLPGTAPKLLIYGNDQRPSGVPDRFSGSKSGTSASLAITGVQAEDEADYYCQSYDRGTHPALLFGTGTKVTVLG
notes: Single-chain Fv; also called clone Y61
For the molecule B5, the koff in [15] was roughly 0.0002 s⁻¹.

B6: J695 (Y61-L94Y-L50Y IgG) (antibody, V domains shown)
VH: QVQLVESGGGVVQPGRSLRLSCAASGFTFSSYGMHWVRQAPGKGLEWVAFIRYDGSNKYYADSVKGRFTISRDNSKNTLYLQMNSLRAEDTAVYYCKTHGSHDNWGQGTMVTVSS
VL: QSVLTQPPSVSGAPGQRVTISCSGSRSNIGSNTVKWYQQLPGTAPKLLIYYNDQRPSGVPDRFSGSKSGTSASLAITGLQAEDEADYYCQSYDRYTHPALLFGTGTKVTVLG
On to B6, for which, in [3], the “IC50 (M), Cyno IL-12 PBMC sup” value was determined as 1e-11 M. Moreover, in test [4], the “IC50 (M), Baboon IL-12 PBMC sup” value was 1.5e-11 M.
As to FIRYDGSNKYYADSVKG [Y61 H58 Y], the koff in test [9] came to 0.00031 s⁻¹.
